Results taken from patent US20040048377A1 (published 2004).

B1: mouse Grg4 (other, UniProt Q62441 1-773, looked up)
chain: MIRDLSKMYPQTRHPAPHQPAQPFKFTISESCDRIKEEFQFLQAQYHSLKLECEKLASEKTEMQRHYVMYYEMSYGLNIEMHKQAEIVKRLNAICAQVIPFLSQEHQQQVVQAVERAKQVTMAELNAIIGQQLQAQHLSHGHGLPVPLTPHPSGLQPPAIPPIGSSAGLLALSSALGGQSHLPIKDEKKHHDNDHQRDRDSIKSSSVSPSASFRGSEKHRNSTDYSSESKKQKTEEKEIAARYDSDGEKSDDNLVVDVSNEDPSSPRGSPAHSPRENGLDKTRLLKKDAPISPASVASSSSTPSSKSKELSLNEKSTTPVSKSNTPTPRTDAPTPGSNSTPGLRPVPGKPPGVDPLASSLRTPMAVPCPYPTPFGIVPHAGMNGELTSPGAAYAGLHNISPQMSAAAAAAAAAAAYGRSPVVGFDPHHHMRVPAIPPNLTGIPGGKPAYSFHVSADGQMQPVPFPPDALIGPGIPRHARQINTLNHGEVVCAVTISNPTRHVYTGGKGCVKVWDISHPGNKSPVSQLDCLNRDNYIRSCRLLPDGRTLIVGGEASTLSIWDLAAPTPRIKAELTSSAPACYALAISPDSKVCFSCCSDGNIAVWDLHNQTLVRQFQGHTDGASCIDISNDGTKLWTGGLDNTVRSWDLREGRQLQQHDFTSQIFSLGYCPTGEWLAVGMENSNVEVLHVTKPDKYQLHLHESCVLSLKFAHCGKWFVSTGKDNLLNAWRTPYGASIFQSKESSSVLSCDISVDDKYIVTGSGDKKATVYEVIY
notes: 35S-labelled, made in TNT rabbit reticulocyte lysate for the immuno-precipitation; expressed from a vector in COS-7 cells in the reporter assays; also called mGrg4
B2: Nkx6.1 (full-length, rNkx6.1) (other, rat, UniProt O35762 1-365, looked up)
chain: MLAVGAMEGPRQSAFLLSSPPLAALHSMAEMKTPLYPAAYPPLPTGPPSSSSSSSSSSSPSPPLGAHNPGGLKPPAAGGLSSLGSPPQQLSAATPHGINDILSRPSMPVASGAALPSASPSGSSSSSSSSASATSASAAAAAAAAAAAAAASSPAGLLAGLPRFSSLSPPPPPPGLYFSPSAAAVAAVGRYPKPLAELPGRTPIFWPGVMQSPPWRDARLACTPHQGSILLDKDGKRKHTRPTFSGQQIFALEKTFEQTKYLAGPERARLAYSLGMTESQVKVWFQNRRTKWRKKHAAEMATAKKKQDSETERLKGTSENEEDDDDYNKPLDPNSDDEKITQLLKKHKSSGGSLLLHASEAEGSS
notes: mature; Full-length protein made in TNT rabbit reticulocyte lysate; 35S-labelled in the GST co-precipitation, immobilised on antibody-proteinA-sepharose in the immuno-precipitation

Experiments:
[1] = target: T1, Nkx2.2ΔTN (Nkx2.2 with the TN domain deleted, Δaa 2-26) (chick); experiment: immuno-precipitation, 35S-labelled Grg4, Nkx protein on antibody-proteinA-sepharose
T1 construct: range 1-1;range 27-C-terminus; Deletion construct, immobilised on antibody-proteinA-sepharose in the immuno-precipitation; also called cNkx2.2^?TN; NKx2.2^?TN
Description: (§1) Immuno-precipitation (IP) assays using rabbit Nkx2.2 (Ericson et al., 1997) and Nkx6.1 antibodies (Jensen et al., 1996) were performed as described by Current protocols 2nd ed. ³⁵S-labelled mGrg4 was synthesized using the TNT coupled rabbit reticulocyte lysate. Electric mobility shift assays were performed as described (Jorgensen et al., 1999). Briefly, the isolated homeodomains of Nkx6.1, Nkx6.2, Nkx2.2 and Nkx2.9HD were synthesized using the TNT coupled rabbit reticulocyte lysate and tested for their binding specificity in vitro using ³²P-labelled double stranded DNA oligonucleotides containing defined Nkx6.1 (Jorgensen et al., 1999) or Nkx2.1 binding sites (Damante et al., 1996).
(§2) An immuno-precipitation assay was then used to test if mammalian Gro/TLE family members could also bind to Nkx proteins, and if the TN domain is required for this interaction. […] Carboxy-terminal directed antibodies that recognise both full-length proteins as well as truncated variants lacking the TN domain were used (Ericson et al., 1997; Jensen et al., 1996). […]
(§3) Deletion of the TN domain in Nkx2.2 and Nkx6.1 reduced the interaction with Grg4 (9-fold for Nkx2.2ATN and 5-fold for Nkx6.1ΔTN, compared to the full-length proteins). […] No significant interaction was detected between Grg4 and antibody-proteinA-sepharose complexes.

mouse Grg4 = target: B1; experiment: as above
Description: as §1, §2, §3

fold reduction of the interaction with Grg4 compared to the full-length protein [1] [fold]	binding result (mouse Grg4)	Binder
9	–	B1
–	binds	B2
